Measured values from the supplement of paper PMC12764529.
± gives the half width of the 95% confidence interval.

Experiments:
[1] = folding stability dG unfold from trypsin proteolysis; higher = more stable
Outline: (§1)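 Digests were run with trypsin and chymotrypsin at 11 concentrations in threefold dilutions, plus a no-protease condition, on designed mini-proteins in a PA-tagged cDNA display construct. The mini-proteins were under 80 residues, had no cysteine, and were kept only when AlphaFold2 dimer inter-PAE was above 15. After sequencing, Bayesian fitting of the counts gave K50, from which unfolding free energy was derived against a sequence-predicted unfolded-state K50 and a shared folded-state K50, per protease or combined.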

[2] = folding stability dG unfold from chymotrypsin proteolysis; higher = more stable
Outline: as §1

[3] = folding stability dG unfold (combined trypsin and chymotrypsin); higher = more stable
Outline: as §1

Sequence	folding stability dG unfold [1]	folding stability dG unfold [2]	folding stability dG unfold [3]
SAGGSAPLVATEVSVEGNTIVVRSVTRLPNGTLSEDVVLIELPPLPLPPPAPWSTFPETGRLRLGPSAGGSA [r15_335_JUSTAS]	0.159 ± 0.15 kcal/mol	0.76 ± 0.21 kcal/mol	0.481 ± 0.24 kcal/mol
SAGGSAPPAVEEIAKILEELFPGYRVVAEAEPVRDPETDEVLLRIRVAVFDENGKVILELEITLPLSAGGSA [r15_1048_TrMRF]	3.89 ± 0.054 kcal/mol	4.3 ± 0.068 kcal/mol	4.19 ± 0.07 kcal/mol
SAGGSAPPNIVRPYVRPFLIYNPNGEPAALGELVIFEAPEGRLILLRLRSLENGEELELPFLYPGESAGGSA [r15_819_TrMRF]	2.71 ± 0.071 kcal/mol	3.453 ± 0.02 kcal/mol	3.25 ± 0.037 kcal/mol
SAGGSAPPPPETVRIRVRITLPDGRTLEIEIEVSREEAERLAKELADRLRELGYEVKVEIVEVEEVSAGGSA [r2_274_TrROS_Hall]	4.34 ± 0.31 kcal/mol	3.14 ± 0.28 kcal/mol	4.51 ± 0.32 kcal/mol
SAGGSAPPQTIPIIIKDPNGKVRIEPVQFDPGPGNFNWDIEHPNGEKHTITFTGPPDDLPPGDYIKSAGGSA [r15_596_TrROS]	-0.575 ± 0.13 kcal/mol	1.37 ± 0.068 kcal/mol	0.784 ± 0.17 kcal/mol
SAGGSAPSSELLEEEFETEDKSNNTTIKIYKVPGTGDYLIETTTPSGKKTKLTLGPLSESEAKGLISAGGSA [r15_295_JUSTAS]	0.0974 ± 0.023 kcal/mol	0.32 ± 0.097 kcal/mol	0.32 ± 0.059 kcal/mol
SAGGSAPVEVRVSVEVLPDGTLRITVEFTLPNGEKLSVEFTIPLAPVPVVDLTSPEALFPALSLLSSAGGSA [r15_1018_TrMRF]	2.43 ± 0.07 kcal/mol	2.41 ± 0.069 kcal/mol	2.42 ± 0.17 kcal/mol
SAGGSAPVKLVVVYDEKTGEYRILAETPEGPVVFPFPRELFENIPLEDIAKLLNLEITEAVIVPNPSAGGSA [r15_801_TrMRF]	2.63 ± 0.086 kcal/mol	3.67 ± 0.13 kcal/mol	3.38 ± 0.13 kcal/mol
SAGGSAPVVRVEIVVLGTGEVRTLTLEEAKRFLEAHPDKIDRVLVRVEVFEPDASTSDDVDPDGVPSAGGSA [r15_99_TrMRF]	2.03 ± 0.034 kcal/mol	1.97 ± 0.021 kcal/mol	2.04 ± 0.07 kcal/mol
SAGGSARIEPVGDYLVIEIPFRYPDGMEWYIEIVINPEEGKIPVDQYPPGDGEPVGEKTLPADEVKSAGGSA [r15_671_TrROS]	0.507 ± 0.14 kcal/mol	2.27 ± 0.11 kcal/mol	1.52 ± 0.23 kcal/mol
SAGGSARIKIDPPGKIKVYYNGQPFTIKPGVELDIQRTDDMIVLRIRMRDPDGKPVGEFPFMFRIKSAGGSA [r15_424_TrROS]	2.13 ± 0.073 kcal/mol	2.59 ± 0.23 kcal/mol	2.41 ± 0.24 kcal/mol
SAGGSARPELVEYRVRIGDVEVRVVLPEGLEELLRRIPDVEVEPVRRFEAPPPPVVLERSELGDFASAGGSA [r15_443_TrMRF]	1.56 ± 0.051 kcal/mol	1.77 ± 0.11 kcal/mol	1.71 ± 0.14 kcal/mol
SAGGSARPLYIKVQIRNPPNGKKKTIEIPIENMPPGDPEYYKEMARSIAEELQEQNGMEIEGIEIYSAGGSA [r15_1013_TrROS]	0.731 ± 0.06 kcal/mol	0.023 ± 0.27 kcal/mol	0.566 ± 0.19 kcal/mol
SAGGSASEELVEEIANIIKPALEEEGIEVERVEATAVTLPDGTVVIPVRVRTKDGPEVLEFNIVILSAGGSA [r15_232_TrMRF]	1.1 ± 0.027 kcal/mol	1.235 ± 0.012 kcal/mol	1.19 ± 0.038 kcal/mol
SAGGSASIEELLKEIIDNLKPGEKYKITIEVDGEEKTFTFTNKNGEKIEIVVKDGKIVSIKIEKLPSAGGSA [r15_175_TrROS_Hall]	2.5 ± 0.4 kcal/mol	4.21 ± 0.12 kcal/mol	3.97 ± 0.3 kcal/mol
SAGGSASIEIPFNGHPYKIEIDDVEPPDEQYRAKAEIRFPGNGKKIPVEGDMPKSDAEDAIKEAIRSAGGSA [r15_944_TrROS]	-0.527 ± 0.19 kcal/mol	0.49 ± 0.16 kcal/mol	0.362 ± 0.25 kcal/mol
SAGGSASIPEKIAEELKEKYGVTEIKILSVDPNGIIKVELKSIEKNEGKLIEKTYKVTVKVPKNLLSAGGSA [r15_646_JUSTAS]	1.86 ± 0.071 kcal/mol	2.23 ± 0.034 kcal/mol	2.14 ± 0.078 kcal/mol
SAGGSASLTVVYPGGETRTFDVSAVSPEFLRAHPDVTVTLPGGEERRLAGDTELSPAGPHTITVPASAGGSA [r15_733_JUSTAS]	2.39 ± 0.11 kcal/mol	1.8 ± 0.083 kcal/mol	2.06 ± 0.088 kcal/mol
SAGGSASMIVKEVKDKVDPAGSVPPDAVIRLETKVDPATGVWTIKVYTEEGKEIGESTVFVKPGILSAGGSA [r15_134_JUSTAS]	0.447 ± 0.054 kcal/mol	0.629 ± 0.083 kcal/mol	0.602 ± 0.069 kcal/mol
SAGGSASMTLYRDEEGKPLFHHSPEPTSSVPRVVPVVNEEGDEKLEIEIPADTPLEELEAIIEELLSAGGSA [r15_309_JUSTAS]	0.0733 ± 0.04 kcal/mol	-0.33 ± 0.18 kcal/mol	-0.0861 ± 0.096 kcal/mol
SAGGSASPFYIAYDPNKPNVATIYPSSQPNLSGSNGATVTPLTDEAELAALKAELKAAGITTITFSSAGGSA [r15_1004_JUSTAS]	0.834 ± 0.054 kcal/mol	0.355 ± 0.22 kcal/mol	0.65 ± 0.11 kcal/mol

Sequence	folding stability dG unfold [1]	folding stability dG unfold [2]	folding stability dG unfold [3]
SAGGSASPSEVRTITATLPGGVVREFEVKMPPGTTVYIPEEGKTITVPPDSSLPLPPDVSVEVRLESAGGSA [r15_152_JUSTAS]	-0.353 ± 0.017 kcal/mol	-0.106 ± 0.021 kcal/mol	-0.148 ± 0.058 kcal/mol
SAGGSASPVFVATRISLPGGNASVDTSRYDPSSGTLTITVTLPDGTTTTITLTGPVSEYPADRLLLSAGGSA [r15_596_JUSTAS]	1.04 ± 0.022 kcal/mol	1.16 ± 0.051 kcal/mol	1.13 ± 0.061 kcal/mol
SAGGSASPVTVTYTDPNSTVLESVYTPSSGIVYVKYKVGDKWYLVTVKLDPSGSSVSSVTKEPLPPSAGGSA [r15_297_JUSTAS]	1.55 ± 0.04 kcal/mol	2.13 ± 0.041 kcal/mol	1.95 ± 0.043 kcal/mol
SAGGSASSPGTPVKLNVNAIITKKLPDGTITTEPGRTLDLPEEEAIEYLKSLPSSYSVEIESIVVESAGGSA [r15_833_JUSTAS]	-0.347 ± 0.15 kcal/mol	0.0371 ± 0.15 kcal/mol	-0.115 ± 0.087 kcal/mol
SAGGSASSSEKIRITYLKDGVEYEVTFPLVELVTDPNTGVTTVTLPPEFKELFPGPITVTEVEIPPSAGGSA [r15_710_JUSTAS]	1.42 ± 0.035 kcal/mol	2.267 ± 0.019 kcal/mol	1.99 ± 0.032 kcal/mol
SAGGSASSVPVELEYETPGDPSSSSYTLEPVDLPPELASRIVEVTAKVEKEGGKLKITATVTLTDLSAGGSA [r15_321_JUSTAS]	0.723 ± 0.12 kcal/mol	0.137 ± 0.25 kcal/mol	0.48 ± 0.2 kcal/mol
SAGGSASTLRLIVIPPSYPNMTIEEAIKNIKIKRPDGKEFEVEVLEVIPVKDYRLLLVRIKDPIPYSAGGSA [r15_331_TrMRF]	2.32 ± 0.058 kcal/mol	2.46 ± 0.071 kcal/mol	2.43 ± 0.14 kcal/mol
SAGGSASTPDGKTKTYTNTNPGATEEEVKPIAEEIAKEIAEKLGLDLSEIGISVSYDPNTGTISPLIGSAGG [r13_913_JUSTAS]	-0.00514 ± 0.061 kcal/mol	-0.321 ± 0.49 kcal/mol	-0.105 ± 0.59 kcal/mol
SAGGSASVKIEVTVSPEQPDLTEEEAKAALTLTLPDGRPVKVEVLEVKPVPGSTVLLVEVEENVLLSAGGSA [r15_331_JUSTAS]	1.64 ± 0.061 kcal/mol	0.487 ± 0.073 kcal/mol	1.13 ± 0.079 kcal/mol
SAGGSASVSPVTLPLEVAPDEEVEGTLTLTLPSGPTVTYTAEITEVSPDGTANPVVTIDDTPVVVESAGGSA [r15_844_JUSTAS]	1.39 ± 0.053 kcal/mol	0.392 ± 0.091 kcal/mol	0.965 ± 0.045 kcal/mol
SAGGSATAEELAEEIAREIAEAFPAEVVRVEVEEVDEDRVVFRMEVRVPLPDGSTVRAPFTVVVPASAGGSA [r15_276_TrMRF]	0.572 ± 0.042 kcal/mol	0.778 ± 0.14 kcal/mol	0.693 ± 0.1 kcal/mol
SAGGSATITIEVNGKPITIEFDKKNKTYTITLPNGKKVEVKVVDGELYITFANGEKRKISLKELKPSAGGSA [r15_448_TrROS_Hall]	2.68 ± 0.12 kcal/mol	4.34 ± 0.15 kcal/mol	3.81 ± 0.17 kcal/mol
SAGGSATVEEIAKYFAEQHPGMEPKSVKLDYERNPEEGVYRIKVNITMRFDDNKKHKMPVEIQFPVSAGGSA [r15_266_TrROS]	0.406 ± 0.059 kcal/mol	0.358 ± 0.14 kcal/mol	0.433 ± 0.085 kcal/mol
SAGGSAVIVIETRADDPRLLEAIKKAREEGKPVVVRFPDGKALVFYPEGPVEEVDSPEQLKEAGFGSAGGSA [r15_94_TrMRF]	2.19 ± 0.033 kcal/mol	1.716 ± 0.011 kcal/mol	1.94 ± 0.031 kcal/mol
SAGGSAVPAGTTFELRYPEDEGSLTLTYDPSTNTVTITDGDKTTTYSSTSLEEVLKELGAELASRLSAGGSA [r15_500_JUSTAS]	0.998 ± 0.041 kcal/mol	1.35 ± 0.094 kcal/mol	1.22 ± 0.09 kcal/mol
SAGGSAVPKLPTGVEVEPLAVIDPETASPEEIRALLAEHPGPLLVRPSSTGEWRVVPAEELLALLGSAGGSA [r15_904_JUSTAS]	0.984 ± 0.034 kcal/mol	1.19 ± 0.076 kcal/mol	1.1 ± 0.071 kcal/mol
SAGGSAWPAKEIAKELNPGFPVDVEPEPVPNKDGKDMVTIEARFPNGWKIQIVFRNGKPEAIQWQKSAGGSA [r15_417_TrROS]	1.47 ± 0.032 kcal/mol	2.28 ± 0.11 kcal/mol	1.97 ± 0.095 kcal/mol
SAGGSDDPAKDIDLDIPVVVLEEEEARELARELDKPIIFRLPDGRLRVFYPDGREEEFPLPKPEELSAGGSA [r2_34_TrMRF]	3.38 ± 0.066 kcal/mol	2.65 ± 0.022 kcal/mol	2.96 ± 0.039 kcal/mol
SAGGSDEVTIDFQVKYNGQPFTVRITIERDPPDGKIEIPVEISYPNPEMREPAREIARNIVRELLNSAGGSA [r2_259_TrROS]	0.873 ± 0.07 kcal/mol	1.66 ± 0.17 kcal/mol	1.32 ± 0.095 kcal/mol
SAGGSDKEHDVEIKINIYVHDDGYIHIDIEVYNPGSPRPIMKFTIHIPAKDMQKKTGRPMTLEDILSAGGSA [r2_180_TrROS]	1.73 ± 0.16 kcal/mol	2.75 ± 0.074 kcal/mol	2.38 ± 0.2 kcal/mol
SAGGSDKVVEIPIDIPNGYTVTIRMHPDDGTARVEVSPNMPPNRVLEKIKKIFDDNGYRILPIEIVSAGGSA [r2_497_TrROS]	1.2 ± 0.03 kcal/mol	0.796 ± 0.053 kcal/mol	1.01 ± 0.077 kcal/mol
